How the values were obtained:
[1] = tested on: KDM5C ARID K101A/R107A (Homo sapiens); experiment: EMSA; conditions: EMSA: 50 mM HEPES pH 7.5, 50 mM KCl, 1 mM BME, 0.01% Tween-20, 0.01% BSA, 5% sucrose, 1 h on ice; 100 nM nucleosome or 147 bp DNA, 500 nM 20 bp DNA; gel at 4 C.; scale: fold reduction
[2] = tested on: KDM5C1-839 (Homo sapiens); experiment: EMSA; conditions: EMSA: 50 mM HEPES pH 7.5, 50 mM KCl, 1 mM BME, 0.01% Tween-20, 0.01% BSA, 5% sucrose, 1 h on ice, 100 nM nucleosome or 147 bp DNA, 500 nM 20 bp DNA, gel at 4 C.; for Kd: apparent Kd
[3] = tested on: KDM5C1-839 A388P (Homo sapiens); experiment: EMSA; conditions: apparent Kd, EMSA: 50 mM HEPES pH 7.5, 50 mM KCl, 1 mM BME, 0.01% Tween-20, 0.01% BSA, 5% sucrose, 1 h on ice, 100 nM nucleosome or 147 bp DNA, gel at 4 C.
[4] = tested on: KDM5C1-839 D343A (Homo sapiens); experiment: EMSA; conditions: apparent Kd, EMSA: 50 mM HEPES pH 7.5, 50 mM KCl, 1 mM BME, 0.01% Tween-20, 0.01% BSA, 5% sucrose, 1 h on ice, 100 nM nucleosome or 147 bp DNA, gel at 4 C.
[5] = tested on: KDM5C1-839 D87G (Homo sapiens); experiment: EMSA; conditions: apparent Kd, EMSA: 50 mM HEPES pH 7.5, 50 mM KCl, 1 mM BME, 0.01% Tween-20, 0.01% BSA, 5% sucrose, 1 h on ice, 100 nM nucleosome or 147 bp DNA, gel at 4 C.
[6] = tested on: KDM5C1-839 ΔAP (Homo sapiens); experiment: EMSA; conditions: apparent Kd, EMSA: 50 mM HEPES pH 7.5, 50 mM KCl, 1 mM BME, 0.01% Tween-20, 0.01% BSA, 5% sucrose, 1 h on ice, 100 nM nucleosome or 147 bp DNA, 500 nM 20 bp DNA, gel at 4 C.
[7] = target: H3K4me3 147 bp mononucleosome (human) (UniProt P68431); experiment: native gel or EMSA; 100 nM nucleosome with various concentrations of KDM5C; 50 mM HEPES pH 7.5, 50 mM KCl, 1 mM BME, 0.01% Tween-20, 0.01% BSA, 5% sucrose; 1 hr on ice; native 7.5% PAGE at 4 °C; apparent dissociation constants from a cooperative binding fit
[8] = target: H3K4me3 187 bp mononucleosome (human) (UniProt P68431); experiment: as above
[9] = target: unmodified 147 bp mononucleosome (human) (UniProt P68431); experiment: as above
[10] = target: unmodified 187 bp mononucleosome (human) (UniProt P68431); experiment: as above
[11] = target: H3K4me3 147 bp mononucleosome (human) (UniProt P68431)
[12] = target: H3K4me3 187 bp mononucleosome (human) (UniProt P68431)
[13] = tested on: KDM5C1-839 ΔAP A388P (Homo sapiens); experiment: EMSA; conditions: apparent Kd; lower limit, saturation unattainable; EMSA: 50 mM HEPES pH 7.5, 50 mM KCl, 1 mM BME, 0.01% Tween-20, 0.01% BSA, 5% sucrose, 1 h on ice; 100 nM nucleosome or 147 bp DNA, 500 nM 20 bp DNA; gel at 4 C.
[14] = histone H3K4me3, 500 nM 20 bp DNA
[15] = lower limit, saturation unattainable

KDM5C^1–839, sequence (P41229 1-839): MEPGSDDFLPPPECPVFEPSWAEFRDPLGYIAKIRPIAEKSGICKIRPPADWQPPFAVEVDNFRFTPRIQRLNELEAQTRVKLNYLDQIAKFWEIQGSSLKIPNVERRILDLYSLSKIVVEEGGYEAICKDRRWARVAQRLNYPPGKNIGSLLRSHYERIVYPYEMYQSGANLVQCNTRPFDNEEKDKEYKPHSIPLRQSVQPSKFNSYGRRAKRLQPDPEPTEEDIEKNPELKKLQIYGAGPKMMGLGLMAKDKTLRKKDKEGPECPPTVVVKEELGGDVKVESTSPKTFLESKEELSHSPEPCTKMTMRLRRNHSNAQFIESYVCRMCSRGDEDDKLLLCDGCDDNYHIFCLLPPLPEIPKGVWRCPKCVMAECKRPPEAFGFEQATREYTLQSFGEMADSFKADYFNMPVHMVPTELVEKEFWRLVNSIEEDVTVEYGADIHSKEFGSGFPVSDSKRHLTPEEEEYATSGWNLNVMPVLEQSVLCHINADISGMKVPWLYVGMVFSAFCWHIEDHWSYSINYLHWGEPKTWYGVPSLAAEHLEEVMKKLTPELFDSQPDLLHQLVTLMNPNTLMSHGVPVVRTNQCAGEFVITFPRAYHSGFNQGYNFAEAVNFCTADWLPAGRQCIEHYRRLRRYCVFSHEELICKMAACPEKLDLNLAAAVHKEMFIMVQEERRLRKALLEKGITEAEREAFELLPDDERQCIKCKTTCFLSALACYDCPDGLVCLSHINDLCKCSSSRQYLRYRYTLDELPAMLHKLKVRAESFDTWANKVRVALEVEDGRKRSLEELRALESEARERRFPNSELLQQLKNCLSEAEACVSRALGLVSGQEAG

147 bp 601 DNA
binding signal [1]: 22

H3K4me3 147 bp core nucleosome
Kd ([2]; Hill n 2.3, histone H3K4me3): 6.9 µM | Kd [3, 14]: 3700 nM | Kd [4, 14]: 8.9 µM | Kd [5, 14]: 2300 nM | Kd ([6]; Hill n 2.4, histone H3K4me3): 20 µM

H3K4me3 187 bp nucleosome
Kd ([2]; histone H3K4me3): 7.3 µM | Kd [3, 14]: 1800 nM | Kd [4, 14]: 4.7 µM | Kd [5, 14]: 1300 nM

KDM5C^1–839 (from UniProt P41229-1 1-839) (domain or fragment)
Kd [7]: 7 µM | Kd [8]: 7 µM | Kd [9]: 13 µM | fold gain in affinity against the core (147 bp) nucleosome [10]: 3 fold

KDM5C^1–839 A388P (from UniProt P41229-1 1-839) (domain or fragment)
fold gain in affinity against the H3K4me3 core nucleosome [8]: 2 fold | Kd [10]: 1000 nM

KDM5C^1–839 D87G (from UniProt P41229-1 1-839) (domain or fragment)
catalytic efficiency kmax/Km^app of demethylation of the H3K4me3 core nucleosome (TR-FRET, single turnover), increase against wild type KDM5C^1–839 [11]: 3 fold | catalytic efficiency kmax/Km^app of demethylation of the 187 bp H3K4me3 nucleosome (TR-FRET, single turnover), against wild type KDM5C^1–839 [12]: 2 fold | fold gain in affinity against the H3K4me3 core nucleosome [8]: 2 fold | Kd [10]: 1000 nM

KDM5C^1–839 D343A (from UniProt P41229-1 1-839) (domain or fragment)
Kd [7]: 8.9 µM | Kd [8]: 4.7 µM | Kd [9]: 8.4 µM | Kd [10]: 3200 nM

KDM5C^(1–839 ΔAP) (from UniProt P41229-1 1-82; P41229-1 379-839) (domain or fragment)
fold reduction in affinity against KDM5C^1–839 [7]: 3 fold | fold reduction in affinity against KDM5C^1–839 [9]: 3 fold

unmodified 147 bp core nucleosome
Kd [2, 15]: > 12.5 µM | Kd ([4]; 500 nM 20 bp …): 8.4 µM | Kd [6, 15]: > 35 µM | Kd [13]: > 45 µM

unmodified 187 bp nucleosome
binding signal ([2]; scale: fold gain in affinity vs 147 bp nucleosome): 3 | Kd ([3]; 500 nM 20 bp …): 1000 nM | Kd ([4]; 500 nM 20 bp …): 3.2 µM | Kd ([5]; 500 nM 20 bp …): 1000 nM

Source: PMC10247153
